Experimental data reported in publication PMC10085679, “Filament assembly underpins the double-stranded DNA specificity of AIM2-like receptors”.

T1: AIM2HIN (Homo sapiens, UniProt O14862 144-343)
T1 sequence: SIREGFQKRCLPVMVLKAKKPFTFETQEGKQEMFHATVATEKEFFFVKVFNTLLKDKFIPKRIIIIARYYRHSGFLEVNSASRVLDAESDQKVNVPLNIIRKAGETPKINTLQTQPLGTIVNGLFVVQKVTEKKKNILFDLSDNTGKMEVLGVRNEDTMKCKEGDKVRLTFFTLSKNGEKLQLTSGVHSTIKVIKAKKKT

T2: AIM2FL (Homo sapiens, UniProt O14862 1-343)
T2 sequence: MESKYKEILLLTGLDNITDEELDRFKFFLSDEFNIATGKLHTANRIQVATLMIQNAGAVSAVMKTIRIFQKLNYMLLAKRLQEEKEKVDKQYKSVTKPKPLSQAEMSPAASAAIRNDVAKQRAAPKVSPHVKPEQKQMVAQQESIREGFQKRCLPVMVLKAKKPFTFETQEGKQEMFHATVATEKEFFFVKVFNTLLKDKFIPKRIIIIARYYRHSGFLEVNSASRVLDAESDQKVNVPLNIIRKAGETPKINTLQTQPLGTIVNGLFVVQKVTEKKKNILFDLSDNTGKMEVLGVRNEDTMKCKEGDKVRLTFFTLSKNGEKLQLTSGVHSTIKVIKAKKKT

B1: 60-base ssRNA_U (ssRNA)
RNA: UUUCUUUCUUUCUUUCUUUCUUUCUUUCUUUCUUUCUUUCUUUCUUUCUUUCUUUCUUUC
B2: 60-base ssDNA_A (ssDNA)
DNA: AAAGAAAGAAAGAAAGAAAGAAAGAAAGAAAGAAAGAAAGAAAGAAAGAAAGAAAGAAAG
B3: 60-base ssRNA_A (ssRNA)
RNA: B2 DNA
B4: 24-bp dsRNA (dsRNA)
RNA 1: UAAGACACGAUGCGAUAAAAUCUG
RNA 2: CAGAUUUUAUCGCAUCGUGUCUUA
B5: 60-bp dsRNA (dsRNA)
RNA 1: UAAGACACGAUGCGAUAAAAUCUGUUUGUAAAAUUUAUUAAGGGUACAAAUUGCCCUAGC
RNA 2: GCUAGGGCAAUUUGUACCCUUAAUAAAUUUUACAAACAGAUUUUAUCGCAUCGUGUCUUA
B6: 60-base ssDNA_T (ssDNA)
DNA: TTTCTTTCTTTCTTTCTTTCTTTCTTTCTTTCTTTCTTTCTTTCTTTCTTTCTTTCTTTC
B7: 24-bp DNA:RNA hybrid (DNA:RNA)
DNA: TAAGACACGATGCGATAAAATCTG
RNA: CAGAUUUUAUCGCAUCGUGUCUUA
B8: 24-bp dsDNA (dsDNA)
DNA 1: TAAGACACGATGCGATAAAATCTG
DNA 2: CAGATTTTATCGCATCGTGTCTTA
B9: 60-bp dsDNA (dsDNA)
DNA 1: TAAGACACGATGCGATAAAATCTGTTTGTAAAATTTATTAAGGGTACAAATTGCCCTAGC
DNA 2: GCTAGGGCAATTTGTACCCTTAATAAATTTTACAAACAGATTTTATCGCATCGTGTCTTA

Tests used:
[1] = target: T1, AIM2HIN; assay: fluorescence anisotropy; 160 mM KCl (60 mM KCl for IFI16HinAB); buffer, pH and temperature not given in the available text; details: protein: recombinant
[2] = target: T3, IFI16HinAB (Homo sapiens, UniProt Q16666-2 159-729); assay: EMSA; apparent KD >=1 uM; low salt; 160 mM KCl; 60 mM KCl for IFI16HinAB; FAM probe 3-6 nM (FA) or 20 nM (EMSA); binding buffer pH and temperature not in the material; details: protein: recombinant; label: FAM
T3 sequence (Q16666 other isoform, or with tags, fused parts or gaps): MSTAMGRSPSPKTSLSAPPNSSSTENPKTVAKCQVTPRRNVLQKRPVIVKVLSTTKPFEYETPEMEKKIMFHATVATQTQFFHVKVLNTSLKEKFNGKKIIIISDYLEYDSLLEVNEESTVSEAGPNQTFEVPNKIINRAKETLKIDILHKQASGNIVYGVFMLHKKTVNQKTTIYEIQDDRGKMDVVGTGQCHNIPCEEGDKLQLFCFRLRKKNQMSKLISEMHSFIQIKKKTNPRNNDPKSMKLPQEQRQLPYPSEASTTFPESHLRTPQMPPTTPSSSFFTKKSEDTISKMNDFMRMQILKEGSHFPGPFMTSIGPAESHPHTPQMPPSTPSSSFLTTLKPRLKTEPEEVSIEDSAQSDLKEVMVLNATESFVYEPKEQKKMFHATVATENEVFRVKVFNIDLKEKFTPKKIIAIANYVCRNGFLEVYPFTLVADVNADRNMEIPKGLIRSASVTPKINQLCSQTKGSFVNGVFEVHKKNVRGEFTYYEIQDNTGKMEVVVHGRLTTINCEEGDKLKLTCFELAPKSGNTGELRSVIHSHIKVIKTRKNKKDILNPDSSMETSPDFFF

[3] = target: T4, IFI16FL (Homo sapiens, UniProt Q16666-2 1-729); assay: fluorescence anisotropy; 160 mM KCl (60 mM KCl for IFI16HinAB); buffer, pH and temperature not given in the available text; details: protein: recombinant; tags: C-terminal His6
T4 sequence (Q16666 other isoform, or with tags, fused parts or gaps): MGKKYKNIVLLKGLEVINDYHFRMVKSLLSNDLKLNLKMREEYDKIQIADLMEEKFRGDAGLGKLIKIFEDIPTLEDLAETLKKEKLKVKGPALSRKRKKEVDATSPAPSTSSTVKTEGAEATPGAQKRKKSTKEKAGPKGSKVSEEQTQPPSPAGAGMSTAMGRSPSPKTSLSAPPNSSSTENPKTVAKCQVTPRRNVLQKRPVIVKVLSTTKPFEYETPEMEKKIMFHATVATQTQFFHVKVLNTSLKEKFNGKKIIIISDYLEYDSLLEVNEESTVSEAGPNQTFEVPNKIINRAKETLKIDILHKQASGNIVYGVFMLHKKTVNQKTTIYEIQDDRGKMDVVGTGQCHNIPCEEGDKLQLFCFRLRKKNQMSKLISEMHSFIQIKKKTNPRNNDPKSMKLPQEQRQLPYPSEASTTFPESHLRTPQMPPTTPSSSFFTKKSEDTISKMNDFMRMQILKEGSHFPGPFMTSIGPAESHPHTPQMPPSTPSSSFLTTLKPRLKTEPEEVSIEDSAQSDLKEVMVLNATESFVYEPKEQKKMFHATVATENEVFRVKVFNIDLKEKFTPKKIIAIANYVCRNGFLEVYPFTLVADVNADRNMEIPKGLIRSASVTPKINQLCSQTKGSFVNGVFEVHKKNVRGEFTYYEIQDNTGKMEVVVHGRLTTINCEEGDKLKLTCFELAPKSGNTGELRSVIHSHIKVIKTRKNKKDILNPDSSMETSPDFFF

[4] = target: T2, AIM2FL; assay: as above; details: protein: recombinant
[5] = target: T3, IFI16HinAB; assay: as above; details: protein: recombinant
[6] = target: T4, IFI16FL; assay: fluorescence anisotropy; 160 mM KCl; 60 mM KCl for IFI16HinAB; FAM probe 3-6 nM (FA) or 20 nM (EMSA); binding buffer pH and temperature not in the material; details: protein: recombinant; tags: C-terminal His6
[7] = target: T2, AIM2FL; assay: as above; details: protein: recombinant
[8] = target: T2, AIM2FL; assay: competition fluorescence anisotropy; unlabelled competitor against 6 nM 24-bp FAM-dsDNA, 100 nM protein; 160 mM KCl (60 mM KCl for IFI16HinAB); buffer, pH and temperature not given in the available text; details: protein: recombinant
[9] = target: T4, IFI16FL; assay: competition fluorescence anisotropy; unlabelled competitor against 6 nM 24-bp FAM-dsDNA, 500 nM protein; 160 mM KCl (60 mM KCl for IFI16HinAB); buffer, pH and temperature not given in the available text; details: protein: recombinant, tags: C-terminal His6
[10] = target: T1, AIM2HIN; assay: competition fluorescence anisotropy; unlabelled competitor against 6 nM 24-bp FAM-dsDNA, 625 nM protein; 160 mM KCl (60 mM KCl for IFI16HinAB); buffer, pH and temperature not given in the available text; details: protein: recombinant
[11] = target: T4, IFI16FL; assay: competition fluorescence anisotropy; unlabelled competitor against 6 nM 60-bp FAM-dsDNA, 100 nM protein; 160 mM KCl (60 mM KCl for IFI16HinAB); buffer, pH and temperature not given in the available text; details: protein: recombinant, tags: C-terminal His6
[12] = target: T1, AIM2HIN; assay: competition fluorescence anisotropy; unlabelled competitor against 6 nM 60-bp FAM-dsDNA, 400 nM protein; 160 mM KCl (60 mM KCl for IFI16HinAB); buffer, pH and temperature not given in the available text; details: protein: recombinant
[13] = target: T3, IFI16HinAB; assay: competition fluorescence anisotropy; unlabelled competitor against 6 nM 24-bp FAM-dsDNA, 1000 nM protein; 160 mM KCl (60 mM KCl for IFI16HinAB); buffer, pH and temperature not given in the available text; details: protein: recombinant
[14] = target: T1, AIM2HIN; assay: fluorescence anisotropy; 160 mM KCl; 60 mM KCl for IFI16HinAB; FAM probe 3-6 nM (FA) or 20 nM (EMSA); binding buffer pH and temperature not in the material; details: protein: recombinant
[15] = target: T3, IFI16HinAB; assay: fluorescence anisotropy; 60 mM KCl; 160 mM KCl; 60 mM KCl for IFI16HinAB; FAM probe 3-6 nM (FA) or 20 nM (EMSA); binding buffer pH and temperature not in the material; details: protein: recombinant
[16] = target: T3, IFI16HinAB; assay: competition fluorescence anisotropy; unlabelled competitor against 6 nM 60-bp FAM-dsDNA, 400 nM protein; 160 mM KCl (60 mM KCl for IFI16HinAB); buffer, pH and temperature not given in the available text; details: protein: recombinant
[17] = target: T2, AIM2FL; assay: competition fluorescence anisotropy; unlabelled competitor against 6 nM 60-bp FAM-dsDNA, 60 nM protein; 160 mM KCl (60 mM KCl for IFI16HinAB); buffer, pH and temperature not given in the available text; details: protein: recombinant
[18] = target: T3, IFI16HinAB; assay: EMSA; apparent KD <=250 nM; low salt; 160 mM KCl; 60 mM KCl for IFI16HinAB; FAM probe 3-6 nM (FA) or 20 nM (EMSA); binding buffer pH and temperature not in the material; details: protein: recombinant; label: FAM
[19] = target: T3, IFI16HinAB; assay: EMSA; low salt; 160 mM KCl; 60 mM KCl for IFI16HinAB; FAM probe 3-6 nM (FA) or 20 nM (EMSA); binding buffer pH and temperature not in the material; details: protein: recombinant; label: FAM
[20] = target: T2, AIM2FL; assay: fluorescence anisotropy; upper-limit estimate; 160 mM KCl; 60 mM KCl for IFI16HinAB; FAM probe 3-6 nM (FA) or 20 nM (EMSA); binding buffer pH and temperature not in the material; details: protein: recombinant
[21] = target: T4, IFI16FL; assay: fluorescence anisotropy; printed 0.003*, upper-limit estimate; 160 mM KCl; 60 mM KCl for IFI16HinAB; FAM probe 3-6 nM (FA) or 20 nM (EMSA); binding buffer pH and temperature not in the material; details: protein: recombinant; tags: C-terminal His6

| Binder | Kd ([1]; label: FAM) [nM] | Kd [4] [nM] | Kd [5] [nM] | Kd [1] [nM] | Kd [6] [nM] | Kd [7] [nM] | IC50 [8] [nM] | IC50 [10] [nM] | IC50 [12] [nM] | IC50 [13] [nM] | IC50 [16] [nM] | further results |
| --- | --- | --- | --- | --- | --- | --- | --- | --- | --- | --- | --- | --- |
| TTTCTTTCTTTCTTTCTTTCTTTC (ssDNA) [24-base ssDNA_T] | 1200 ± 200 |  |  |  |  |  |  |  |  |  |  | Kd [2]: > 1000 nM |
| B1 |  | 80 ± 20 | 30 ± 10 | 300 ± 100 | 78 ± 11 | 80 ± 20 | 273 ± 171 | 219 ± 33.5 | 741 ± 70.3 | 733 ± 48.5 |  | Kd [3]: 78 ± 11 nM; IC50 [9]: 305 ± 48.5 nM; IC50 [11]: 1120 ± 75.5 nM |
| B2 |  | 150 ± 30 |  | 2700 ± 100 | 150 ± 20 | 150 ± 30 | 58.9 ± 6.7 | 134 ± 16.6 |  |  | 3010 | Kd [14]: 2700 ± 100 nM; Kd [15]: 500 ± 200 nM |
| B3 |  | 400 ± 100 |  | 1400 ± 200 |  | 400 ± 100 | 46.1 ± 2.7 | 132.8 ± 0.4 | 1230 ± 483 |  | 1970 ± 90 | IC50 [17]: 1020 ± 130 nM; IC50 [11]: 166 ± 18 nM |
| B4 | 1200 ± 200 |  |  |  |  |  |  |  |  |  |  | Kd [2]: > 1000 nM |
| B5 |  | 50 ± 10 | 30 ± 10 | 1100 ± 200 | 85 ± 7 | 50 ± 10 | 69.7 ± 6.7 | 92.9 ± 2.8 | 281 ± 53.1 | 1130 ± 61.7 | 1430 ± 366 | Kd [3]: 85 ± 7 nM; IC50 [9]: 490 ± 40.3 nM; IC50 [11]: 1070 ± 132 nM |
| AAAGAAAGAAAGAAAGAAAGAAAG (ssDNA) [24-base ssDNA_A] |  |  |  |  |  |  |  |  |  |  |  | Kd ([14]; label: FAM): 5700 ± 700 nM; Kd [2]: > 1000 nM |
| B6 |  | 320 ± 80 | 70 ± 20 | 400 ± 100 | 22 ± 4 | 320 ± 80 | 165 ± 7.3 | 113 ± 7.3 | 1000 ± 259 | 828 ± 155 | 1390 ± 137 | Kd [3]: 22 ± 4 nM; IC50 [9]: 644 ± 133 nM |
| B7 | 900 ± 100 |  |  |  |  |  |  |  |  |  |  | Kd [18]: < 250 nM |
| AAAGAAAGAAAGAAAGAAAGAAAG (ssRNA) [24-base ssRNA_A] |  |  |  |  |  |  |  |  |  |  |  | Kd [19]: ~500 nM |
| B8 | 900 ± 200 |  |  |  |  |  |  |  |  |  |  | Kd ([4]; label: FAM): 80 ± 20 nM; Kd [18]: < 250 nM |
| B9 |  |  | 20 ± 10 | 600 ± 100 |  |  | 11.8 ± 0.3 | 19.7 ± 1.9 | 268 ± 8.4 | 289 ± 37.3 | 258 ± 24.9 | Kd [20]: < 3 nM; Kd [21]: < 3 nM; IC50 [17]: 142 ± 8.5 nM; IC50 ([9]; chain copies: 4): 331 ± 29.8 nM; IC50 ([11]; chain copies: 4): 627 ± 132 nM |
| UUUCUUUCUUUCUUUCUUUCUUUC (ssRNA) [24-base ssRNA_U] | 210 ± 60 |  |  |  |  |  |  |  |  |  |  | Kd [19]: ~500 nM |
